From the Human Domainome abundance scans (Beltran et al. 2025)
± gives the uncertainty stated by the source.

B1: Formin-binding protein 4, residues 200 to 261; numbered along this chain, Q8N3X1 (parent)
chain: SGWQYDTQCSLAGVGIEMGDWQEVWDENTGCYYYWNTQTNEVTWELPQYLATQVQGLQHYQP
B2: Myocardin, residues 363 to 406; numbered along this chain, Q8IZQ8 (parent)
chain: KPGPLPPNLDDLKVSELRQQLRIRGLPVSGTKTALMDRLRPFQD

Variants of: B1
Assay: abundance fitness (aPCA) (normalised: wild type 0, dead -1); higher = more abundant; growth selection in yeast, the domain comes from the species named
Conditions: Homo sapiens

Q: For DGWQYDTQCSLAGVGIEMGDWQEVWDENTGCYYYWNTQTNEVTWELPQYLATQVQGLQHYQP, which abundance fitness is on record?
A: Its abundance fitness is 0.085 ± 0.41.

Q: With AGWQYDTQCSLAGVGIEMGDWQEVWDENTGCYYYWNTQTNEVTWELPQYLATQVQGLQHYQP as the variant, how does the abundance fitness read?
A: Its abundance fitness is 0.057 ± 0.11.

Q: Which abundance fitness does the source give for CGWQYDTQCSLAGVGIEMGDWQEVWDENTGCYYYWNTQTNEVTWELPQYLATQVQGLQHYQP here?
A: The abundance fitness was -0.068 ± 0.16.

Variants of: B2
Assay: as above
Conditions: Homo sapiens

Q: Which abundance fitness does the source give for KPGPLPPNLDDLKVSELRQQLRIRGLPVSGTKTALMDRLRWFQD here?
A: Its abundance fitness is -0.161 ± 0.09.

Q: For KPGPLPPNLDDLKVSELRQQLRIRGLPVSGTKTALMDRLRSFQD, which abundance fitness is on record?
A: Its abundance fitness is 0.064 ± 0.11.

Q: For KPGPLPPNLDDLKVSELRQQLRIRGLPVSGTKTALMDRLRVFQD, which abundance fitness is on record?
A: The abundance fitness was -0.11 ± 0.087.

Q: With KPGPLPPNLDDLKVSELRQQLRIRGLPVSGTKTALMDRLRLFQD as the variant, how does the abundance fitness read?
A: The abundance fitness was -0.132 ± 0.082.

Q: With KPGPLPPNLDDLKVSELRQQLRIRGLPVSGTKTALMDRLRYFQD as the variant, how does the abundance fitness read?
A: The abundance fitness was -0.455 ± 0.13.

Q: For KPGPLPPNLDDLKVSELRQQLRIRGLPVSGTKTALMDRLRRFQD, which abundance fitness is on record?
A: The abundance fitness was -0.256 ± 0.058.

Q: With KPGPLPPNLDDLKVSELRQQLRIRGLPVSGTKTALMDRLRKFQD as the variant, how does the abundance fitness read?
A: Its abundance fitness is -0.305 ± 0.077.

Q: Which abundance fitness does the source give for KPGPLPPNLDDLKVSELRQQLRIRGLPVSGTKTALMDRLRTFQD here?
A: Its abundance fitness is -0.351 ± 0.12.

Q: With KPGPLPPNLDDLKVSELRQQLRIRGLPVSGTKTALMDRLRMFQD as the variant, how does the abundance fitness read?
A: The abundance fitness was -0.231 ± 0.3.

Q: Which abundance fitness does the source give for KPGPLPPNLDDLKVSELRQQLRIRGLPVSGTKTALMDRLRPQQD here?
A: Its abundance fitness is -0.06 ± 0.093.

Q: For KPGPLPPNLDDLKVSELRQQLRIRGLPVSGTKTALMDRLRPGQD, which abundance fitness is on record?
A: Its abundance fitness is -0.278 ± 0.057.

Q: Which abundance fitness does the source give for KPGPLPPNLDDLKVSELRQQLRIRGLPVSGTKTALMDRLRPRQD here?
A: The abundance fitness was -0.12 ± 0.07.

Q: With KPGPLPPNLDDLKVSELRQQLRIRGLPVSGTKTALMDRLRPAQD as the variant, how does the abundance fitness read?
A: Its abundance fitness is 0.067 ± 0.062.

Q: For KPGPLPPNLDDLKVSELRQQLRIRGLPVSGTKTALMDRLRPDQD, which abundance fitness is on record?
A: The abundance fitness was -0.061 ± 0.18.

Q: For KPGPLPPNLDDLKVSELRQQLRIRGLPVSGTKTALMDRLRPSQD, which abundance fitness is on record?
A: The abundance fitness was 0.03 ± 0.092.

Q: With KPGPLPPNLDDLKVSELRQQLRIRGLPVSGTKTALMDRLRPCQD as the variant, how does the abundance fitness read?
A: Its abundance fitness is -0.138 ± 0.082.

Q: For KPGPLPPNLDDLKVSELRQQLRIRGLPVSGTKTALMDRLRPKQD, which abundance fitness is on record?
A: Its abundance fitness is -0.09 ± 0.14.

Q: With KPGPLPPNLDDLKVSELRQQLRIRGLPVSGTKTALMDRLRPWQD as the variant, how does the abundance fitness read?
A: Its abundance fitness is -0.124 ± 0.065.

Q: For KPGPLPPNLDDLKVSELRQQLRIRGLPVSGTKTALMDRLRPVQD, which abundance fitness is on record?
A: The abundance fitness was -0.211 ± 0.074.

Q: Which abundance fitness does the source give for KPGPLPPNLDDLKVSELRQQLRIRGLPVSGTKTALMDRLRPLQD here?
A: The abundance fitness was 0.111 ± 0.068.

Q: For KPGPLPPNLDDLKVSELRQQLRIRGLPVSGTKTALMDRLRPHQD, which abundance fitness is on record?
A: The abundance fitness was 0.139 ± 0.12.

Q: For KPGPLPPNLDDLKVSELRQQLRIRGLPVSGTKTALMDRLRPMQD, which abundance fitness is on record?
A: Its abundance fitness is -0.242 ± 0.1.

Q: Which abundance fitness does the source give for KPGPLPPNLDDLKVSELRQQLRIRGLPVSGTKTALMDRLRPYQD here?
A: The abundance fitness was -0.102 ± 0.1.

Q: For KPGPLPPNLDDLKVSELRQQLRIRGLPVSGTKTALMDRLRPNQD, which abundance fitness is on record?
A: Its abundance fitness is -0.736 ± 0.36.

Q: Which abundance fitness does the source give for KPGPLPPNLDDLKVSELRQQLRIRGLPVSGTKTALMDRLRPPQD here?
A: Its abundance fitness is -0.02 ± 0.086.

Q: For KPGPLPPNLDDLKVSELRQQLRIRGLPVSGTKTALMDRLRPEQD, which abundance fitness is on record?
A: Its abundance fitness is -0.148 ± 0.086.

Q: For KPGPLPPNLDDLKVSELRQQLRIRGLPVSGTKTALMDRLRPFAD, which abundance fitness is on record?
A: Its abundance fitness is -0.042 ± 0.1.

Q: For KPGPLPPNLDDLKVSELRQQLRIRGLPVSGTKTALMDRLRPFFD, which abundance fitness is on record?
A: The abundance fitness was 0.028 ± 0.21.

Q: For KPGPLPPNLDDLKVSELRQQLRIRGLPVSGTKTALMDRLRPFID, which abundance fitness is on record?
A: The abundance fitness was -0.109 ± 0.14.

Q: For KPGPLPPNLDDLKVSELRQQLRIRGLPVSGTKTALMDRLRPFHD, which abundance fitness is on record?
A: The abundance fitness was -0.376 ± 0.17.

Q: With KPGPLPPNLDDLKVSELRQQLRIRGLPVSGTKTALMDRLRPFND as the variant, how does the abundance fitness read?
A: Its abundance fitness is -0.213 ± 0.18.

Q: For KPGPLPPNLDDLKVSELRQQLRIRGLPVSGTKTALMDRLRPFWD, which abundance fitness is on record?
A: The abundance fitness was -0.106 ± 0.074.

Q: Which abundance fitness does the source give for KPGPLPPNLDDLKVSELRQQLRIRGLPVSGTKTALMDRLRPFSD here?
A: The abundance fitness was -0.061 ± 0.083.

Q: For KPGPLPPNLDDLKVSELRQQLRIRGLPVSGTKTALMDRLRPFRD, which abundance fitness is on record?
A: The abundance fitness was -0.232 ± 0.059.

Q: For KPGPLPPNLDDLKVSELRQQLRIRGLPVSGTKTALMDRLRPFGD, which abundance fitness is on record?
A: Its abundance fitness is -0.152 ± 0.064.

Q: With KPGPLPPNLDDLKVSELRQQLRIRGLPVSGTKTALMDRLRPFKD as the variant, how does the abundance fitness read?
A: Its abundance fitness is -0.503 ± 0.29.

Q: For KPGPLPPNLDDLKVSELRQQLRIRGLPVSGTKTALMDRLRPFCD, which abundance fitness is on record?
A: The abundance fitness was -0.005 ± 0.13.

Q: For KPGPLPPNLDDLKVSELRQQLRIRGLPVSGTKTALMDRLRPFPD, which abundance fitness is on record?
A: The abundance fitness was -0.625 ± 0.1.

Q: For KPGPLPPNLDDLKVSELRQQLRIRGLPVSGTKTALMDRLRPFTD, which abundance fitness is on record?
A: The abundance fitness was 0.1 ± 0.094.

Q: Which abundance fitness does the source give for KPGPLPPNLDDLKVSELRQQLRIRGLPVSGTKTALMDRLRPFMD here?
A: The abundance fitness was -0.031 ± 0.07.

Q: With KPGPLPPNLDDLKVSELRQQLRIRGLPVSGTKTALMDRLRPFQG as the variant, how does the abundance fitness read?
A: The abundance fitness was 0 ± 0.064.

Q: Which abundance fitness does the source give for KPGPLPPNLDDLKVSELRQQLRIRGLPVSGTKTALMDRLRPFQN here?
A: Its abundance fitness is -0.236 ± 0.23.

Q: Which abundance fitness does the source give for KPGPLPPNLDDLKVSELRQQLRIRGLPVSGTKTALMDRLRPFQL here?
A: Its abundance fitness is -0.494 ± 0.22.

Q: For KPGPLPPNLDDLKVSELRQQLRIRGLPVSGTKTALMDRLRPFQF, which abundance fitness is on record?
A: Its abundance fitness is -0.325 ± 0.25.

Q: With KPGPLPPNLDDLKVSELRQQLRIRGLPVSGTKTALMDRLRPFQS as the variant, how does the abundance fitness read?
A: The abundance fitness was -0.313 ± 0.15.

Q: Which abundance fitness does the source give for KPGPLPPNLDDLKVSELRQQLRIRGLPVSGTKTALMDRLRPFQC here?
A: The abundance fitness was -0.297 ± 0.21.

Q: For KPGPLPPNLDDLKVSELRQQLRIRGLPVSGTKTALMDRLRPFQQ, which abundance fitness is on record?
A: The abundance fitness was -0.206 ± 0.18.

Q: Which abundance fitness does the source give for KPGPLPPNLDDLKVSELRQQLRIRGLPVSGTKTALMDRLRPFQA here?
A: Its abundance fitness is -0.086 ± 0.13.

Q: With KPGPLPPNLDDLKVSELRQQLRIRGLPVSGTKTALMDRLRPFQY as the variant, how does the abundance fitness read?
A: Its abundance fitness is -0.379 ± 0.13.

Q: With KPGPLPPNLDDLKVSELRQQLRIRGLPVSGTKTALMDRLRPFQK as the variant, how does the abundance fitness read?
A: The abundance fitness was 0.195 ± 0.14.

Q: With KPGPLPPNLDDLKVSELRQQLRIRGLPVSGTKTALMDRLRPFQR as the variant, how does the abundance fitness read?
A: The abundance fitness was -0.03 ± 0.2.

Q: Which abundance fitness does the source give for KPGPLPPNLDDLKVSELRQQLRIRGLPVSGTKTALMDRLRPFQV here?
A: Its abundance fitness is 0.038 ± 0.13.

Q: With KPGPLPPNLDDLKVSELRQQLRIRGLPVSGTKTALMDRLRPFQW as the variant, how does the abundance fitness read?
A: The abundance fitness was -0.218 ± 0.34.

Q: For KPGPLPPNLDDLKVSELRQQLRIRGLPVSGTKTALMDRLRPFQE, which abundance fitness is on record?
A: The abundance fitness was -0.031 ± 0.19.
